Legend:
[1] = Phage titer assay of phage binding to hair; set-up: species or system human; conditions: phage-displayed peptide; six gray hair strands; relative to HP2-TonB-Gray3 = 100
Description: (§1) Phage particles recovered from panning (Example 2) were used to infect E. coli 10GF′ and transformants were purified by colony isolation. Purified phagemid clones were infected with helper phage VCSM13 and phage particles were isolated. Those purified phage clones were assayed for binding to hair by two methods.
Six gray hair strands (1.5 cm long) were blocked with BSA (1 mg/mL) at room temperature (˜21° C.) for 30 min in 1.5 mL microfuge tubes, then washed twice with tris buffered saline (TBS). Phage particles were added in TBS plus 0.1% TWEEN®-20 and incubated at room temperature for 1 hour with gentle shaking. The hair was then washed 3 times with TBS plus 0.5% TWEEN®-20, and centrifuged briefly to remove excess liquid. E. coli 10GF′ (1 mL; OD600nm=0.5) was added for 15 min. Aliquots were plated on selective plates and phagemid-containing colonies were counted (Table 4)

[2] = Phage ELISA of phage binding to hair; set-up: species or system human; conditions: phage-displayed peptide, 1×10^11 pfu; A450; relative to HP2-TonB-Gray3 = 100
Description: as §1
Gray hair (200 strands, 1.5 cm long per bundle were blocked with BSA (1 mg/mL) at room temperature (˜21° C.) for 30 min in 1.5 mL microfuge tubes, then washed 3 times with TBS. Phage particles (1×10^11 pfu) were added in TBS plus 0.1% TWEEN®-20 and incubated at room temperature for 1 hr with gentle shaking. The hair was then washed 5 times with TBS plus 0.5% TWEEN®-20. Hair with bound phage was incubated with HRP/Anti-M13 monoclonal conjugate (GE Healthcare Bio-Science Corp, Piscataway, N.J.) at room temperature (˜21° C.) for 1 hr with gentle shaking, then washed 6 times with TBS plus 0.5% TWEEN®-20. IMMUNOPURE® TMB substrate kit (High sensitivity, Pierce, Rockford, Ill.; a division of Thermo Scientific) was used for colorimetric assay. After 15˜20 min development with gentle shaking, the reaction was stopped, and absorbance was determined at 450 nm. The Phage titer and ELISA data were reported relative to the activity observed for the hair-binding domain HP2-TonB-Gray3. (Table 4).

Molecule | Phage Titer (%) relative to the activity of HP2-TonB-Gray3 [1] [%] | ELISA (%) relative to the activity of HP2-TonB-Gray3 [2] [%]
HB1-(KGGGS)4-HP2: hair-binding domain with flexible linker, SEQ ID NO: 95 (PSTPPTNVLMLATKGPKGGGSKGGGSKGGGSKGGGSPAAQSQLPDKHSGLHERAPQRYGS) | 10 | 1
Gray1-(KP)8-Gray1: hair-binding domain, SEQ ID NO: 77 (PSGMPAMHWIHPFAGPKPKPKPKPKPKPKPKPPAGMPAMHWIHPFAGS) | 1 | 1
Gray3-[(KP)6GG]2-KF11: hair-binding domain, SEQ ID NO: 83 (PSHDHKNQKETHQRHAAGPKPKPKPKPKPKPGGKPKPKPKPKPKPGGPANTSQLSTGS) | 1 | 1
HP2-(EEAAKK)2-MEA4: hair-binding domain, SEQ ID NO: 76 (PSAQSQLPDKHSGLHERAPQRYGPEEAAKKEEAAKKPAHINKTNPHQGNHHSEKTQRQGS) | 330 | 130
HB1-(KP)12-IB5A: hair-binding domain, SEQ ID NO: 96 (PSTPPTNVLMLATKGPKPKPKPKPKPKPKPKPKPKPKPKPPATPPELLHGAPRSGS) | 5 | 1
KF11-[(KP)6GG]2-KF11: hair-binding domain, SEQ ID NO: 101 (PSNTSQLSTGPKPKPKPKPKPKPGGKPKPKPKPKPKPGGPANTSQLSTGS) | 1 | 1
HP2-TonB-Gray3: hair-binding domain, SEQ ID NO: 85, also found in peptide HC353 (peptide) PSAQSQLPDKHSGLHERAPQRYGPEPEPEPEPIPEPPKEAPVVIEKPKPKPKPKPKPPAHDHKNQKETHQRHAAGS | 100 | 100
HP2-TonB-IB5A: hair-binding domain, SEQ ID NO: 88 (peptide) PSAQSQLPDKHSGLHERAPQRYGPEPEPEPEPIPEPPKEAPVVIEKPKPKPKPKPKPPATPPELLHGAPRSGS | 50 | 100
Gray5-(EAAAKLL)3-MEA4: hair-binding domain, SEQ ID NO: 90 (peptide) PSTAEIQSSKNPNPHPQRSWTNGPEAAAKLLEAAAKLLEAAAKLLPAHINKTNPHQGNHHSEKTQRQGS | 25 | 115
HP2-(EEAAKK)5-Gray4A: hair-binding domain, SEQ ID NO: 74 (peptide) PSAQSQLPDKHSGLHERAPQRYGPEEAAKKEEAAKKEEAAKKEEAAKKEEAAKKPAHNHMQERYTAPQHSPSVNGLGS | 50 | 80
HP2-TonB-HP2: hair-binding domain, SEQ ID NO: 91 (peptide) PSAQSQLPDKHSGLHERAPQRYGPEPEPEPEPIPEPPKEAPVVIEKPKPKPKPKPKPPAAQSQLPDKHSGLHERAPQRYGS | 55 | 55
Gray5-(EAAAKLL)3-Gray3: hair-binding domain, SEQ ID NO: 92 (peptide) PSTAEIQSSKNPNPHPQRSWTNGPEAAAKLLEAAAKLLEAAAKLLPAHDHKNQKETHQRHAAGS | 10 | 60
HP2-(EEAAKK)4-Gray1: hair-binding domain, SEQ ID NO: 73 (peptide) PSAQSQLPDKHSGLHERAPQRYGPEEAAKKEEAAKKEEAAKKEEAAKKPAGMPAMHWIHPFAGS | 40 | 8
HP2-TonB-HB1: hair-binding domain, SEQ ID NO: 93 (peptide) PSAQSQLPDKHSGLHERAPQRYGPEPEPEPEPIPEPPKEAPVVIEKPKPKPKPKPKPPATPPTNVLMLATKGS | 30 | 1
MEA4-(EAAAKLL)3-IB5A: hair-binding domain, SEQ ID NO: 94 (peptide) PSHINKTNPHQGNHHSEKTQRQGPEAAAKLLEAAAKLLEAAAKLLPATPPELLHGAPRSGS | 10 | 20
Gray5-[(KP)6GG]2-Gray4A: hair-binding domain, SEQ ID NO: 78 (peptide) PSTAEIQSSKNPNPHPQRSWTNGPKPKPKPKPKPKPGGKPKPKPKPKPKPGGPAHNHMQERYTAPQHSPSVNGLGS | 1 | 1
KF11-[(KP)6GG]2-Gray4A: hair-binding domain, SEQ ID NO: 97 (peptide) PSNTSQLSTGPKPKPKPKPKPKPGGKPKPKPKPKPKPGGPAHNHMQERYTAPQHSPSVNGLGS | 1 | 1
Gray3-TonB-HP1: hair-binding domain, SEQ ID NO: 98 (peptide) PSHDHKNQKETHQRHAAGPEPEPEPEPIPEPPKEAPVVIEKPKPKPKPKPKPPAGSCVDTHKADSCVANNGPATGS | 1 | 1
Gray5-[(KP)6GG]2-HP2: hair-binding domain, SEQ ID NO: 99 (peptide) PSTAEIQSSKNPNPHPQRSWTNGPKPKPKPKPKPKPGGKPKPKPKPKPKPGGPAAQSQLPDKHSGLHERAPQRYGS | 1 | 1
Gray3-(EAAAKLL)4-HB1: hair-binding domain, SEQ ID NO: 100 (peptide) PSHDHKNQKETHQRHAAGPEAAAKLLEAAAKLLEAAAKLLEAAAKLLPATPPTNVLMLATKGS | 1 | 1
HP2-TonB-MEA4: hair-binding domain, SEQ ID NO: 89 (peptide) PSAQSQLPDKHSGLHERAPQRYGPEPEPEPEPIPEPPKEAPVVIEKPKPKPKPKPKPPAHINKTNPHQGNHHSEKTQRQGS | 1 | 1

From patent US9278138B2, “Peptide linkers for effective multivalent peptide binding” (E. I. DU PONT DE NEMOURS AND COMPANY, priority 2008, dated 2016)
